Assay results reported in US20030203869A1.

Each substance was assayed against purified HLA-A2.1 molecules (human) (assay: inhibition of binding of a labeled reference peptide to purified HLA-A2.1).

Row | Substance | IC50 [nM]
1 | HBV Core 18 (HBV core 18-27) CTL epitope peptide […] (peptide; other documents disagree on this pair) | 3
2 | HBV Pol 551-A (native HBV pol 551-559) CTL epitope peptide […] (peptide; other documents disagree on this pair) | 200
3 | HIV Pol 476 (HIV pol 476-484) CTL epitope peptide […] (peptide; other documents disagree on this pair) | 192
